{"source": "paper PMC3834327", "about": "“N ^6-Substituted AMPs Inhibit Mammalian Deoxynucleotide N-Hydrolase DNPH1” (PLoS ONE, 2013)", "substrate": "Nc1nc2c(ncn2[C@H]2C[C@H](O)[C@@H](COP(=O)(O)O)O2)c(=O)[nH]1", "experiment": "purified protein, by the assay type", "conditions": "other: substrate of human DNPH1; double reciprocal plots, five concentrations; pH 7.0", "data": [{"protein": "human DNPH1 (Homo sapiens) (protein) MAAAMVPGRSESWERGEPGRPALYFCGSIRGGREDRTLYERIVSRLRRFGTVLTEHVAAAELGARGEEAAGGDRLIHEQDLEWLQQADVVVAEVTQPSLGVGYELGRAVAFNKRILCLFRPQSGRVLSAMIRGAADGSRFQVWDYEEGEVEALLDRYFEADPPGQVAASPDPTT", "values": [{"measurement": "Km", "result": "57 ± 12", "unit": "µM"}, {"measurement": "kcat", "result": 0.002, "unit": "s⁻¹"}, {"measurement": "kcat/Km", "result": 35, "unit": "M⁻¹ s⁻¹"}]}]}
